Laboratory results reported in the supplement of paper PMC9170038.

System: MS2 coat protein
Assay: apparent KD of MS2 coat protein; designed switch direction (-1 OFF switch, 1 ON switch): -1; higher = weaker reporter binding
Outline: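 Designed RNA switches sharing common flanks were transcribed on Illumina chips by stalled E. coli RNA polymerase. They were titrated with SNAP-549-labelled MS2 coat protein, from 0.7 or 1.5 nM doubling to 3 µM, in Tris-HCl pH 7.5 buffer with KCl, MgCl2, BSA, DTT, tRNA and Tween-20. Titrations ran without input, with 200 uM small-molecule ligand, or with an oligonucleotide input. The apparent KD of each design is the median over its clusters, after curve-fitting of normalised cluster fluorescence.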

[1] = Eterna round: R95, input ligand: FMN 200 uM
[2] = Eterna round: R95, input ligand: microRNA oligo, concentration not stated
[3] = Eterna round: R95, input ligand: none
[4] = input ligand: microRNA oligo, concentration not stated

ACUUACUGAGGAUAUACAUAGAUUUACAUGAGGAUCACCCAUGUUCCUCUAUGUAUAUAUGUAGAAGGCAGAAGAG [Mat - Exclusion 5 - JL Mod - D35] (Eterna round: R97, puzzle: Exclusion 5)
apparent KD of MS2 coat protein (input ligand: FMN 200 uM): 56.3 nM | apparent KD of MS2 coat protein (input ligand: none): 21.6 nM

GACUGGACGUGGUCUGGUUACAUGAGGAUCACCCAUGUAGGUCUAAGAACAUGCCUUUUGUACGCUCGUCUUAUAUA [JR_SV3TOV1_Sub065] (puzzle: Sensor v3, turn-off variant 1)
apparent KD of MS2 coat protein [1]: 37.9 nM | apparent KD of MS2 coat protein [2]: 20.7 nM | apparent KD of MS2 coat protein [3]: 39.6 nM

GUGAAACAUGAGGAUCACCCAUGUCAGGAUAUGCGAAUUUCAUCAAAAGAUGAAAUUUGCAGAAGGGACUGUAC [Omei Ex1 A21] (Eterna round: R97, puzzle: Exclusion 1)
apparent KD of MS2 coat protein (input ligand: FMN 200 uM): 136 nM | apparent KD of MS2 coat protein (input ligand: none): 70.3 nM

ACAUGUCAUCUAGGAUAUUGGACACAUGAGGAUCACCCAUGUACCCGGAGGCUUUACUAUGAGUUCGAGAAGGAGAUGUACAUG [Ex NG2 #72] (Eterna round: R96, puzzle: Exclusion NG 2)
apparent KD of MS2 coat protein (input ligand: FMN 200 uM): 133 nM | apparent KD of MS2 coat protein [4]: 38.6 nM | apparent KD of MS2 coat protein (input ligand: none): 57.9 nM

CUGGUCCGAGGAUAUAUUUAGUGAAACAUGAGGAUCACCCAUGUUAUUAGAUGGAUGUAAAUAGAAGGCGGACUAG [Mat - Exclusion 5 - JL mod - D63] (puzzle: Exclusion 5)
apparent KD of MS2 coat protein [1]: 18.5 nM | apparent KD of MS2 coat protein [2]: 20.4 nM | apparent KD of MS2 coat protein [3]: 23.8 nM

UCAAGUAUGUAGGAUAUGAUGUGAUUAUACAUAUCAGAAGGACGUACAUGAGGAUCACCCAUGUAACUUGCAUG [Exclusion 6 - B - 12:c] (puzzle: Exclusion 6)
apparent KD of MS2 coat protein [1]: 29.8 nM | apparent KD of MS2 coat protein [2]: 59.1 nM | apparent KD of MS2 coat protein [3]: 52.6 nM

UGCGGUUGAGGAUAUACGUAGAAGUAGAUUCAUGUAAAACUACAUGAGGAUCACCCAUGUAGAAGGCAAUCGCU [Mat - Exclusion 2 - JL Mod - D40] (Eterna round: R97, puzzle: Exclusion 2)
apparent KD of MS2 coat protein (input ligand: FMN 200 uM): 193 nM | apparent KD of MS2 coat protein (input ligand: none): 21.5 nM

AUAAAUCAUGUAGGAUAUGCGUGGCAAAGCUAUGCAGAAGGACAUGAGGAUCACCCAUGUGCUUCCGUCUGCGUACAGACGGUA [Mat - Exclusion NG 1 - Mod of JL - D33] (Eterna round: R96, puzzle: Exclusion NG 1)
apparent KD of MS2 coat protein (input ligand: FMN 200 uM): 114 nM | apparent KD of MS2 coat protein [4]: 80.7 nM | apparent KD of MS2 coat protein (input ligand: none): 107 nM

UCGGCGCGAGGAUAUACGUUUGCUUUUUUUUGUCGUUGCGUACAUGAGGAUCACCCAUGUAGAAGGCGCGCCGC [Apr-15 SS2-23] (puzzle: Exclusion 2)
apparent KD of MS2 coat protein [2]: 16.8 nM

GCUGCAAAUGUAGGAUAUCUGCACGUUUAGUGCAGAGAAGGACAUGAGGAUCACCCAUGUAGAUCAGCAGCAAUUAAUUUAAUU [ENG1/5-A2] (Eterna round: R96, puzzle: Exclusion NG 1)
apparent KD of MS2 coat protein (input ligand: FMN 200 uM): 480 nM | apparent KD of MS2 coat protein [4]: 40.8 nM | apparent KD of MS2 coat protein (input ligand: none): 45.2 nM

CUGACGUCAGGAUAUAGCAUACACUGACUAGAUGGACAGGGUUAGAAGGGACAUGAGGAUCACCCAUGUGGUUU [Eternabot (L1) Solution 81] (Eterna round: R97, puzzle: Exclusion 4)
apparent KD of MS2 coat protein (input ligand: FMN 200 uM): 56.3 nM | apparent KD of MS2 coat protein (input ligand: none): 50.5 nM

AACCUGAGGCUUUGCUUUAGGUGUACAUGAGGAUCACCCAUGUAGGAUAUGGUAGGCUUUGCUUACCAGAAGGACAUUGGCGUU [JL ENG3 1.14] (Eterna round: R96, puzzle: Exclusion NG 3)
apparent KD of MS2 coat protein (input ligand: FMN 200 uM): 388 nM | apparent KD of MS2 coat protein [4]: 66.2 nM | apparent KD of MS2 coat protein (input ligand: none): 97.3 nM

UUGUGCACGCUGCGAUCCUACAUGAGGAUCACCCAUGUGGUCUGGUGGCGUGGGUCACCGGACUUGGCUCGUCUUGC [salish99_S_TOV1_R5_073] (Eterna round: R97, puzzle: Sensor, turn-off variant 1)
apparent KD of MS2 coat protein (input ligand: FMN 200 uM): 28.8 nM | apparent KD of MS2 coat protein (input ligand: none): 28.6 nM

CGCCUGGGAGGAUAUCCAAUAUAUGACAUGAGGAUCACCCAUGUUUCCACUCGUACCUCCGGAGAAGGCCCGGCGC [Ex5 #30] (Eterna round: R97, puzzle: Exclusion 5)
apparent KD of MS2 coat protein (input ligand: FMN 200 uM): 23.1 nM | apparent KD of MS2 coat protein (input ligand: none): 25.2 nM

UGUUGUCGCGCAGGAUAUGAGGAUCACCCAUAUAGAGGAUAUGAAAAGAAGGCUCUGAGGAUUACCCAGAAGGGCGGGACAACU [pwkr exNG2 2xF5 2xFMN.21] (Eterna round: R96, puzzle: Exclusion NG 2)
apparent KD of MS2 coat protein (input ligand: FMN 200 uM): 1660 nM | apparent KD of MS2 coat protein [4]: 152 nM | apparent KD of MS2 coat protein (input ligand: none): 179 nM

AUUUUGUCAGGAUAUUGUUAGUUUAGUUGUUUGUAUUAGUUCGAGAAGGGACAUGAGGAUCACCCAUGUGAUUU [Ex4 #74] (Eterna round: R97, puzzle: Exclusion 4)
apparent KD of MS2 coat protein (input ligand: FMN 200 uM): 135 nM | apparent KD of MS2 coat protein (input ligand: none): 114 nM

AAAUACAAGCAAAGAUCCUACAUGAGGAUCACCCAUGUGUUCGUCUUAUAAAGUACUAUCACGAAAGUGAUAGUACA [Sensor 3, v1 - 18] (puzzle: Sensor v3, turn-off variant 1)
apparent KD of MS2 coat protein [1]: 309 nM | apparent KD of MS2 coat protein [2]: 1100 nM | apparent KD of MS2 coat protein [3]: 198 nM

GGUGAGAGCAAGGAUAUGCAGAAGAGAGAAAGAGCAGAAGGUGCUACAUGAGGAUCACCCAUGUUGGAUGUGUU [JR_E6_Sub014] (puzzle: Exclusion 6)
apparent KD of MS2 coat protein [1]: 46.3 nM | apparent KD of MS2 coat protein [2]: 35.6 nM | apparent KD of MS2 coat protein [3]: 39.3 nM

GACUUGUCAGGAUAUCUUACAUUAACAUCGUAGUUACCGUUGGAGAAGGGACAUGAGGAUCACCCAUGUUUGGC [tap-tap-tappy25] (Eterna round: R97, puzzle: Exclusion 4)
apparent KD of MS2 coat protein (input ligand: FMN 200 uM): 41.8 nM | apparent KD of MS2 coat protein (input ligand: none): 28.7 nM

CUUAAACAUGAGGAUCACCCAUGUCAGGAUAUGAUACUAUGUACUUCGGUACAUAGUAUCAGAAGGGAUAUAAA [Ex1-3: 65] (puzzle: Exclusion 1)
apparent KD of MS2 coat protein [2]: 39.3 nM

UUGUUAUAUGAAGGAUAUACUUAACAUGAGGAUCACCCAUGUGGUGUUGUGAGUGAGUGAGUUUAGUAGAAGGUCAAGUAUUUU [JMF's solution 52] (Eterna round: R96, puzzle: Exclusion NG 2)
apparent KD of MS2 coat protein (input ligand: FMN 200 uM): 509 nM | apparent KD of MS2 coat protein [4]: 368 nM | apparent KD of MS2 coat protein (input ligand: none): 377 nM

UGGCUGCUCAGGGAGUGUGACAUGAGGAUCACCCAUGUGGUAGUAAGGAACAAGCUUUUUACACGUACUUAUAAAGC [JR_SV3TOV1_Sub011] (puzzle: Sensor v3, turn-off variant 1)
apparent KD of MS2 coat protein [1]: 157 nM | apparent KD of MS2 coat protein [2]: 135 nM | apparent KD of MS2 coat protein [3]: 296 nM

UUUAAUUUUUUUUUUUUACAAGCUUUUUGCUCGUCUUAUACAUGAGGAUCACCCAUGUGGGUGGGAGGUAAAUUAUC [JMF 78] (puzzle: Sensor v3, turn-off variant 2)
apparent KD of MS2 coat protein [1]: 63.7 nM | apparent KD of MS2 coat protein [2]: 26.1 nM | apparent KD of MS2 coat protein [3]: 82.6 nM

AGAAAUUCAAGAGGAUAUCACAUGAGGAUCACCCAUGUAUAGCGCGCUACGCUAGUCCUCGUAUUUGAGAAGGUUUGAUAAAAG [Mat - Exclusion NG 2 - Mod of JL - D77] (Eterna round: R96, puzzle: Exclusion NG 2)
apparent KD of MS2 coat protein (input ligand: FMN 200 uM): 14.3 nM | apparent KD of MS2 coat protein [4]: 14.3 nM | apparent KD of MS2 coat protein (input ligand: none): 15.7 nM

CCUAAACAUGAGGAUCACCCAUGUGAGGAUAUGAUGCGAAUAAAGAAAGAAGAAAGCAUCAGAAGGCACAUAGG (Eterna round: R96, puzzle: Exclusion 1)
apparent KD of MS2 coat protein [4]: 131 nM
